Measurements taken from patent US12018068B2, “Anti-O1 antibodies and uses thereof” (priority 2016, dated 2024).

B1: KPE33 H32+L2016(1EQ): further optimized variant of KPE33v2016, VH SEQ ID NO:61, VL SEQ ID NO:63 (antibody, V domains shown)
VH: QVQLVESGGGLVQPGRSLRLSCAASGFIFDDYAIHWVRQAPGKGLEWVSGIAYKSGATNYAESVKGRFTISRDQSKNSLYLQMNSLRAEDTALYYCTRRRASGDNTFYYFDYWGQGTLVTVSS
VL: QIVLTQSPATLSLSPGERATLSCRASQNVNTNLAWYQQKPGQAPRLLIYDASNRATGIPARFSGSGSGTDFTLTISSLEPEDFAVYYCQQTTNWRYTFGQGTKLEIK
B2: KPE33 H33+L2016(1EQ): further optimized variant of KPE33v2016, VH SEQ ID NO:62, VL SEQ ID NO:63 (antibody, V domains shown)
VH: QVQLVESGGGLVQPGRSLRLSCAASGFIFDDYAIHWVRQAPGKGLEWVSGIAYKSGATNYAESVKGRFTISRDQSKKSLYLQMNSLRAEDTALYYCTRRRASGDNTFYYFDYWGQGTLVTVSS
VL: QIVLTQSPATLSLSPGERATLSCRASQNVNTNLAWYQQKPGQAPRLLIYDASNRATGIPARFSGSGSGTDFTLTISSLEPEDFAVYYCQQTTNWRYTFGQGTKLEIK

How the values were obtained:
O1 LPS = test: Octet binding affinity to O1 LPS; parameters: species or system Klebsiella pneumoniae; settings: average, from on-rate and off-rate, read-out: affinity constant (KD) to O1 LPS
Description: In order to reduce potential sequence liabilities for antibody development including potential immunogenicity due to anti-drug antibodies, an unpaired Cysteine in the light chain CDR3 of KPE33 was exchanged with Threonine (T), and somatic mutations in the frameworks 1, 2, and 4 of KPE33 were replaced with germ line residues (as summarized in FIG. 5). CDRs were maintained as wildtype, except for the C107T substitution described above. The optimized KPE33 was named KPE33v2016. […] This platform provides a powerful tool to measure the rate of biomolecular complex formation and complex stability in a more biologically meaningful setting. Briefly, Protein A coated sensors were coated with 2 μg/mL O1 LPS for 10 minutes before being dipped into solution containing 0.2 μg/mL anti-O1 LPS mAbs in Kinetics buffer (ForteBio, dilute 10× to 1× with PBS). Changes in the number of molecules bound to the biosensor caused a shift in the interference pattern that was recorded in real time. […] The affinity constant (KD) of KPE33 and KPE33v2016 to O1 LPS was calculated based on the on-rate and off-rate from Octet sensorgram.
KPE33v2016 was further optimized, thereby creating two new variants—KPE33 H32+L2016(1EQ) and KPE33 H33+L2016(1EQ). Both of these variants contain a Methionine to Isoleucine mutation adjacent to CDRH1, a Tryptophan to Tyrosine mutation in CDRH2, an Aspartate to Glutamate mutation adjacent to CDRH2, Asparagine to Glutamine and Methionine to Leucine mutations in FRH3 and an Aspartate to Asparagine mutation in CDRH3. In addition, KPE33 H32+L2016(1EQ) had four FRH3 residues changed to the germ-line residues, whereas KPE33 H33+L2016(1EQ) only has three of the same FRH3 residues changed to the germ-line. Both of these variants contain the same light chain as KPE33v2016, but with a single Glutamate to Glutamine mutation in residue 1.

[1] = tested on: K. pneumoniae carbapenem-resistant (CRE) strain Kp1131115 (O1); test: acute lethal pneumonia model, survival; format: in vivo, Klebsiella pneumoniae; settings: C57BL/6 mice, antibody one hour post bacterial challenge, vs human IgG1 control (R347)
Protocol: (§1) In an acute pneumonia model, C57BL/6 mice were inoculated intranasally with 1e4 to 1e8 CFU of the multi-drug resistant Klebsiella pneumoniae carbapenam resistant (CRE) clinical isolate strain KP1131115 (O1). Anti-K. pneumoniae monoclonal antibody KPE33 at 0.2, 1, and 5 mg/kg and human IgG1 control antibody at 5 mg/kg were given one hour post bacterial challenge (therapeutic dosing). Mouse survival was monitored daily until up to day 8.
as §1, with “Additionally, in an” for “In an”, “monoclonal antibodies […] and […]” for “monoclonal antibody KPE33”, “at 0.2” for “at 0.2, 1,”, “and 1” for “and 5”
KPE33 or KPE33-V-2016 were administered at a dose of 6 mg/kg 1 hour post bacterial infection with a Klebsiella pneumoniae carbapenam resistant strain.

Row | Molecule | Kd (O1 LPS) | survival, lethal pneumonia Kp1131115 [1] | survival, lethal pneumonia Kp1131115 ([1]; listed as KPE33-H32+L2016(EQ1))
1 | B1 | 4.46 nM | dose dependently enhanced survival | protect mice from lethal bacterial challenge
2 | B2 | 5.01 nM | dose dependently enhanced survival | 
